Values belong to the binder of their own block, whether it stands above or below them.
Biological target: T1, human TTYH3 (Tweety homologue 3), detergent-solubilized and purified (human, UniProt Q9C0H2)
T1 construct: Tweety homologue 3 (TTYH3), human; gene (Genscript) cloned into the vector pcDXC3MS; Homodimer; source: HEK293 GNTI− cells, transiently transfected, purified in GDN (Strep-Tactin, SEC)
Assay: SEC; TTYH2 or TTYH3 with a 1.6 molar excess of sybody on a Superose 6 Increase 5/150 GL column; sybody in the TTYH peak fractions detected by SDS–PAGE
Conditions: both partners purified

T1 sequence (Q9C0H2 2-523): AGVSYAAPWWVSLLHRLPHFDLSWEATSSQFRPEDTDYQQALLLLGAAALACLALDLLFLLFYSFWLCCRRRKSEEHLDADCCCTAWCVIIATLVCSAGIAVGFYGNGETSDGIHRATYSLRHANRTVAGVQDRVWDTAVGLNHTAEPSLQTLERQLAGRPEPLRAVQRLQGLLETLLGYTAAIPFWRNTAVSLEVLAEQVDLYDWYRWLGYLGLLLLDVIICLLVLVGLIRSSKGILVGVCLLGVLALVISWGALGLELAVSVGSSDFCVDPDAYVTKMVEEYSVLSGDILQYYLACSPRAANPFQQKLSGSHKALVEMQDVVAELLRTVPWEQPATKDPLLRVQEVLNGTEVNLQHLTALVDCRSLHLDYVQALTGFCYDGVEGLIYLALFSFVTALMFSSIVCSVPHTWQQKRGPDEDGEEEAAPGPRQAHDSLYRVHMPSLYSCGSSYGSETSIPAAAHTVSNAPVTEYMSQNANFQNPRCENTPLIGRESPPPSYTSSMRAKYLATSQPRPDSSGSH

binding result: no binding
B1: sybody Sb2^TTYH2 (VHH)
VHH: QVQLVESGGGLVQAGGSLRLSCAASGFPVTNDSMHWYRQAPGKEREWVAAIASQGRGTAYADSVKGRFTISRDNAKSTVYLQMNSLKPEDTAVYYCNVKDYGYDLQWYDYWGQGTQVTVS
notes: synthetic nanobody from the loop library (medium CDR3); For force spectroscopy immobilised on glass by the protocol used for APOE, or added soluble at 20–50 µM; also called Syb2; unlabelled Sb2; source: E. coli MC1061, periplasmic expression, purified (Ni-NTA, SEC)

binding result: no binding
B2: sybody Sb1^TTYH2 (VHH)
VHH: QVQLVESGGGLVQAGGSLRLSCTASGFPVAFAQMKWYRQAPGKEREWVAAIWSMGNETTYADSVKGRFTISRDNAKNTVYLQMNSLKPEDTAVYYCAVEVGYGYHGQGTQVTVS
notes: synthetic nanobody from the concave library (short CDR3); also called Syb1; source: E. coli MC1061, periplasmic expression, purified (Ni-NTA, SEC)

— paper PMC12328215, “Interactions between TTYH2 and APOE facilitate endosomal lipid transfer” (Nature, 2025)
